According to patent US20180112001A1 (Regeneron, published 2018):
Where two headings read alike, the source gives them in different places. Each block holds one binder with its values, some of them ahead of it.

Columns and labels:
[1] = target: T1, MUC16 "short" construct expressed on PC3 cells (PC3/MUC16 short) (human); assay: IHC on FFPE cell pellets, PC3/MUC16 Short cells
T1 construct: Transfected into PC3/ATCC cells; part of SEA12, SEA13-SEA16, C-terminal non-SEA region, transmembrane region and cytoplasmic domain; also called "nub" portion of MUC16 without the repeat regions
T1 chain: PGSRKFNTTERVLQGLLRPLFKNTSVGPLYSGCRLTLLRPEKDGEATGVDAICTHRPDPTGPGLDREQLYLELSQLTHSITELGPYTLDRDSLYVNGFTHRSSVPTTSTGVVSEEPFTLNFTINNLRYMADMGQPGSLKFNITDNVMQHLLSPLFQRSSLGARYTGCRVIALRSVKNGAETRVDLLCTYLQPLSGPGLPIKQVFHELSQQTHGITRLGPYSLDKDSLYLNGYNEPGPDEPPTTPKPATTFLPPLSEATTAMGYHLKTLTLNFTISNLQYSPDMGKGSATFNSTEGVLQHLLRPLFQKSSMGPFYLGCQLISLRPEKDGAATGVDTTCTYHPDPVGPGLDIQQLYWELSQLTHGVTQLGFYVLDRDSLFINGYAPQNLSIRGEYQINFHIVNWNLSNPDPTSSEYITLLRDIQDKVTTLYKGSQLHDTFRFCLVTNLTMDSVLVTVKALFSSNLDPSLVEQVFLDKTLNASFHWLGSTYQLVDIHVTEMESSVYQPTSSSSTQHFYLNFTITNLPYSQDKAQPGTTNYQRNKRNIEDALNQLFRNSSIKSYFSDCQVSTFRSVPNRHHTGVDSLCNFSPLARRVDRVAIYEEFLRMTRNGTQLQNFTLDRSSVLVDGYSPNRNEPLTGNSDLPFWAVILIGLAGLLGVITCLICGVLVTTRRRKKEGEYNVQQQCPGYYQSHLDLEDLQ

[2] = target: T2, soluble monomeric human MUC16, truncated format encompassing the last five SEA domains of Mucin-16 (human); assay: SPR Biacore, antibody captured, soluble monomeric hMUC16.mmh injected, 25C
T2 construct: also called hMUC16.mmh; MUC16 "nub"
T2 chain: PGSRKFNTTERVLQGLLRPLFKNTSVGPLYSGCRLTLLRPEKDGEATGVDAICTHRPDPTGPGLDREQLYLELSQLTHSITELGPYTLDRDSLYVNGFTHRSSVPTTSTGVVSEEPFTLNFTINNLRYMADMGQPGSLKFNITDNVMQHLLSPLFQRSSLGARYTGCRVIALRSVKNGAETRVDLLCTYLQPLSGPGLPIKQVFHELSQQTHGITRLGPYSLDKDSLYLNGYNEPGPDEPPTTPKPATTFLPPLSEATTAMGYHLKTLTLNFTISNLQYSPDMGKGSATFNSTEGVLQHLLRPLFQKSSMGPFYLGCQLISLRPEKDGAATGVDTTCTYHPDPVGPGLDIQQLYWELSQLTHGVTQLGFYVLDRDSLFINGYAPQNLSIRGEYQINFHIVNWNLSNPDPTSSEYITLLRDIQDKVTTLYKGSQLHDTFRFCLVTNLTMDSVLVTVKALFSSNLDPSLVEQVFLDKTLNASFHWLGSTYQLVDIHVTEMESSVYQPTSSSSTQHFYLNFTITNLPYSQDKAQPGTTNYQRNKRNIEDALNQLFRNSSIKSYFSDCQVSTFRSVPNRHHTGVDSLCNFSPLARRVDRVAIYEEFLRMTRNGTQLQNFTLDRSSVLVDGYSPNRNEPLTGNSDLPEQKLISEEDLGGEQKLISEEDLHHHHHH

[3] = target: T3, human MUC16 (mucin 16), endogenously expressed on cells (human); assay: MSD electrochemiluminescence cell binding; RLU ratio OVCAR-3/SK-OV-3; Ab 1.9 nM
T3 construct: Endogenous MUC16 on OVCAR-3 / OVCAR3-Luc / PEO-1 / HPAC cells; also called hMUC16

[4] = target: T3, human MUC16 (mucin 16), endogenously …; assay: MSD electrochemiluminescence cell binding; RLU ratio OVCAR-3/SK-OV-3; Ab 16.7 nM
[5] = target: T2, soluble monomeric human MUC16, …; assay: SPR Biacore, antibody captured, soluble monomeric hMUC16.mmh injected, 25C
[6] = target: T3, human MUC16 (mucin 16), endogenously …; assay: MSD electrochemiluminescence cell binding; RLU ratio OVCAR-3/SK-OV-3; Ab 16.7 nM; NS = Non-Specific, ratio <2.5-fold
[7] = target: T3, human MUC16 (mucin 16), endogenously …; assay: cell-based or functional assay
[8] = target: T3, human MUC16 (mucin 16), endogenously …; assay: cell-based or functional assay; remark: listed apart in the source
[9] = target: T4, cynomolgus monkey CD3 on cynomolgus T cells (cynomolgus monkey, UniProt Q95LI5 22-198); assay: FACS binding titration on cynomolgus T cells
T4 construct: whole, on cells; also called cynomolgus CD3

[10] = target: T3, human MUC16 (mucin 16), endogenously …; assay: FACS binding titration on PEO-1 (MUC16+) cells
[11] = target: T3, human MUC16 (mucin 16), endogenously …; assay: FACS binding titration on OVCAR3-Luc (MUC16+) cells
mouse CD3 = mouse CD3 (mouse, UniProt P22646 22-108); assay: not described (statement in the pharmacokinetic example)
[12] = target: T2, soluble monomeric human MUC16, …; assay: SPR Biacore, antibody captured, soluble monomeric hMUC16.mmh injected, 25C
[13] = target: T5, human CD3 on cells (Jurkat cells, human T cells) (human, UniProt P07766 23-207; P04234 22-171); assay: FACS titration of Jurkat cells
T5 construct: on cells CD3 is part of the TCR complex; also called hCD3

[14] = target: T4, cynomolgus monkey CD3 on cynomolgus T …; assay: FACS titration of cynomolgus T cells
[15] = target: T3, human MUC16 (mucin 16), endogenously …; assay: cell-based or functional assay; remark: listed apart in the source
[16] = target: T5, human CD3 on cells (Jurkat cells, human …); assay: cell-based or functional assay
[17] = target: T5, human CD3 on cells (Jurkat cells, human …); assay: cell-based or functional assay; remark: listed apart in the source
[18] = target: T5, human CD3 on cells (Jurkat cells, human …); assay: FACS binding titration on Jurkat cells
[19] = target: T3, human MUC16 (mucin 16), endogenously …; assay: FACS binding titration on OVCAR3 (MUC16+) cells
[20] = target: T5, human CD3 on cells (Jurkat cells, human …); assay: cell-based or functional assay; remark: listed apart in the source
[21] = target: T5, human CD3 on cells (Jurkat cells, human …); assay: FACS binding titration on Jurkat cells; remark: listed apart in the source

T4 sequence (Q95LI5 22-198): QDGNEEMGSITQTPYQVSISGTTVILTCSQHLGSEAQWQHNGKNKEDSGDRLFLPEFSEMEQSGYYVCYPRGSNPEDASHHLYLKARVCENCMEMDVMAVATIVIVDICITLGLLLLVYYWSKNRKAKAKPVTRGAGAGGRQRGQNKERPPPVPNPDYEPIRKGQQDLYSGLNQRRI
T5 sequence (P07766 23-207 limits assumed, chain 1 of 2): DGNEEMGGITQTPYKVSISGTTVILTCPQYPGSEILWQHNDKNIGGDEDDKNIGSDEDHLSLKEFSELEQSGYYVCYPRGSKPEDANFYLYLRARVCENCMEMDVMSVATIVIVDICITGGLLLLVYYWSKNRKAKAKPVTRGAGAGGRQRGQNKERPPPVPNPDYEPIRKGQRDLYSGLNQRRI
T5 sequence (P04234 22-171 limits assumed, chain 2 of 2): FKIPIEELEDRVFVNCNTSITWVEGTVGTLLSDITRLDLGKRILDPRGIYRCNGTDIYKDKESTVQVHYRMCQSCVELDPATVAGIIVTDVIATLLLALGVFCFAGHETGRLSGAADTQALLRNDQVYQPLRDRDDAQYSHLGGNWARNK
mouse CD3, sequence (P22646 22-108): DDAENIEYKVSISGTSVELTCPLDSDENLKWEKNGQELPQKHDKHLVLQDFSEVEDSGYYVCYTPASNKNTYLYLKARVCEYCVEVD

binding result [1]: binds
Kd [2]: 1.25 nM
koff [2]: 9.25e-05 s⁻¹
kon [2]: 74100 M⁻¹ s⁻¹
t ½ [2]: 125 min
Ratio: anti-MUC16 Binding OVCAR-3/SK-OV-3 [3]: 82 ratio
Ratio: anti-MUC16 Binding OVCAR-3/SK-OV-3 [4]: 50 ratio
B1: H2M7138N (antibody, mouse IgG2, V domains shown)
VH: QVQLVQSGAEVKKPGASVKVSCKASGYTFTSSDINWVRQATGQGLEWVGWMNPNYGYTGSARKFQDRVTMTRNTSLSTAYLELHSLRSEDTAVYYCARVTYCSSVTSCFRPFTYWGQGTLVTVSA
VL: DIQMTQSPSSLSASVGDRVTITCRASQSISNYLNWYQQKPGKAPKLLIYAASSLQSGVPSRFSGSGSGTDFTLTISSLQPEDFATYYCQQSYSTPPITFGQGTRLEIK
notes: Mouse IgG2 constant region (H2M); also called H2aM7138N

Kd [5]: 52.4 nM
koff [5]: 0.000216 s⁻¹
kon [5]: 4120 M⁻¹ s⁻¹
t1/2 [5]: 54 min
Ratio: anti-MUC16 Binding OVCAR-3/SK-OV-3 [3]: 4 ratio
Ratio: anti-MUC16 Binding OVCAR-3/SK-OV-3 [6]: < 2.5 ratio
B2: H1H8808P (antibody, human IgG1, V domains shown)
VH: QVQLVESGGGVVQPGRSLRLSCVASGFTFSNYGIHWVRQAPGKGLEWVAVISDDGSFKFYADSVKGRFTISRDNSKNTLYLQMNSLRVEDSAVYHCAKWQHNWNDGGFDYWGQGTLVTVSS
VL: EIVLTQSPDTLSLSPGERATLSCRASQSLSSNYLAWYRQKPGQAPRLLIYGISSRATGIPDRFSGSGSGTDFTLTISRLEPEDFAVYYCQQYGSSPWTFGQGTKVEIK
notes: Human IgG1 (H1H)

PEO-1 cell depletion EC50 [7]: 0.0774 nM
OVCAR3-Luc cell depletion EC50 [8]: 0.0516 nM
EC50 [9]: 1170 nM
EC50 [10]: 2.63 nM
EC50 [11]: 1.47 nM
binding result (mouse CD3): no binding
Kd [12]: 6 nM
koff [12]: 0.000564 s⁻¹
kon [12]: 94100 M⁻¹ s⁻¹
t ½ [12]: 21 min
B3: BSMUC16/CD3-005 (bispecific antibody, V domains shown)
VH 1: QVQLVESGGGLVKPGGSLRLSCAASGFTFSNYYMSWVRQAPGKGLEWISYISGRGSTIFYADSVKGRITISRDNAKNSLFLQMNSLRAEDTAVYFCVKDRGGYSPYWGQGTLVTVSS
VH 2: EVQLVESGGGLVQPGRSLRLSCAASGFTFDDYSMHWVRQAPGKGLEWVSGISWNSGSIGYADSVKGRFTISRDNAKNSLYLQMNSLRAEDTALYYCAKYGSGYGKFYYYGMDVWGQGTTVTVSS
VL: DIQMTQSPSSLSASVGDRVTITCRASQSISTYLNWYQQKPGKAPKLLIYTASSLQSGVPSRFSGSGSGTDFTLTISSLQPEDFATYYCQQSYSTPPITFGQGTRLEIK
notes: Anti-MUC16 VH (H1H8767P), anti-CD3 VH (CD3-VH-G20), common light chain; also called REGN4019; anti-MUC16xCD3 bispecific antibody with CD3-VH-G20 arm

EC50 [13]: 1 to 40 nM
EC50 [14]: 1 to 40 nM
B4: CD3-VH-P (anti-CD3 antibody) (antibody, V domains shown)
VH: EVQLVESGGGLVQPGRSLRLSCVASGFTFDDYSMHWVRQAPGKGLEWVSGISWNSGSKDYADSVKGRFTISRDNAKNSLYLQMNSLRAEDTALYYCAKYGSGYGKFYHYGLDVWGQGTTVTVSS
VL: DIQMTQSPSSLSASVGDSVTITCRASQSINNYLNWYQQKPGKAPKLLIYTASSLLSGVPSRFSGSGSGTDFTLTISGLHPEDFATYFCQQSFSTPPITFGQGTRLDIK

Kd [5]: 3.58 nM
koff [5]: 0.000418 s⁻¹
kon [5]: 117000 M⁻¹ s⁻¹
t1/2 [5]: 28 min
Ratio: anti-MUC16 Binding OVCAR-3/SK-OV-3 [3]: 4 ratio
Ratio: anti-MUC16 Binding OVCAR-3/SK-OV-3 [6]: < 2.5 ratio
B5: H1H8767P (antibody, human IgG1, V domains shown)
VH: QVQLVESGGGLVKPGGSLRLSCAASGFTFSNYYMSWVRQAPGKGLEWISYISGRGSTIFYADSVKGRITISRDNAKNSLFLQMNSLRAEDTAVYFCVKDRGGYSPYWGQGTLVTVSS
VL: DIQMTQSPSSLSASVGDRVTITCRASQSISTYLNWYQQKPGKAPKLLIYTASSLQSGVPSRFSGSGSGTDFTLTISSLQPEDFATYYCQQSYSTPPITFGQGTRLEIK
notes: Human IgG1 (H1H)

OVCAR3 cell depletion EC50 [15]: 0.0306 nM
T cell activation (CD69 upregulation) EC50 [16]: 0.0101 nM
PEO-1 cell depletion EC50 [7]: 0.0675 nM
T cells activation (CD25 upregulation) EC50 [17]: 0.0889 nM
T cells activation (CD69 upregulation) EC50 [17]: 0.0134 nM
EC50 [18]: 301 nM
EC50 [10]: 3.13 nM
EC50 [19]: 2.69 nM
B6: BSMUC16/CD3-002 (bispecific antibody, V domains shown)
VH 1: QVQLVESGGGLVKPGGSLRLSCAASGFTFSNYYMSWVRQAPGKGLEWISYISGRGSTIFYADSVKGRITISRDNAKNSLFLQMNSLRAEDTAVYFCVKDRGGYSPYWGQGTLVTVSS
VH 2: EVQLVESGGGLVQPGRSLRLSCAASGFTFDDYSMHWVRQAPGKGLEWVSGISWNSGSIGYADSVKGRFTISRDNAKNSLYLQMNSLRAEDTALYYCAKDGSGYGKFYYYGMDVWGQGTTVTVSS
VL: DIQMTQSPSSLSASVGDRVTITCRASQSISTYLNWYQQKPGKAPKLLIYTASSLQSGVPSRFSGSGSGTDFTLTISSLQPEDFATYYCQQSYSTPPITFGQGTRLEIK
notes: Anti-MUC16 VH (H1H8767P), anti-CD3 VH (CD3-VH-G5), common light chain; also called anti-MUC16xCD3 bispecific antibody with CD3-VH-G5 arm
binding result [9]: no binding (tested: serial dilution from 66.6 nM to 0.001 nM)

OVCAR3 cell depletion EC50 [15]: 0.0224 nM
T cell activation (CD69 upregulation) EC50 [16]: 0.00588 nM
PEO-1 cell depletion EC50 [7]: 0.0256 nM
T cells activation (CD25 upregulation) EC50 [17]: 0.039 nM
T cells activation (CD69 upregulation) EC50 [17]: 0.00834 nM
OVCAR3-Luc cell depletion EC50 [8]: 0.0154 nM
T cells activation (CD25 upregulation) EC50 [20]: 0.0306 nM
T cells activation (CD69 upregulation) EC50 [20]: 0.00298 nM
EC50 [21]: 3.21 nM
EC50 [18]: 6.44 nM
EC50 [9]: 15.6 nM
EC50 [10]: 3.02 nM
EC50 [19]: 1.2 nM
EC50 [11]: 1.32 nM
binding result (mouse CD3): no binding
Kd [12]: 6.18 nM
koff [12]: 0.000586 s⁻¹
kon [12]: 94800 M⁻¹ s⁻¹
t ½ [12]: 20 min
B7: BSMUC16/CD3-001 (bispecific antibody, V domains shown)
VH 1: QVQLVESGGGLVKPGGSLRLSCAASGFTFSNYYMSWVRQAPGKGLEWISYISGRGSTIFYADSVKGRITISRDNAKNSLFLQMNSLRAEDTAVYFCVKDRGGYSPYWGQGTLVTVSS
VH 2: EVQLVESGGGLVQPGRSLRLSCAASGFTFDDYSMHWVRQAPGKGLEWVSGISWNSGSKGYADSVKGRFTISRDNAKNSLYLQMNSLRAEDTALYYCAKYGSGYGKFYHYGLDVWGQGTTVTVSS
VL: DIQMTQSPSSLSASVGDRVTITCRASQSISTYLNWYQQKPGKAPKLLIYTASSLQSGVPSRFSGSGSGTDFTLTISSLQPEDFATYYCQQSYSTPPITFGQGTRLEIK
notes: Anti-MUC16 VH (H1H8767P), anti-CD3 VH (CD3-VH-G), common light chain; also called anti-MUC16xCD3 bispecific antibody with CD3-VH-G arm
